Data as given in patent publication US9731031B2, “Conjugate comprising oxyntomodulin and an immunoglobulin fragment, and use thereof” (Hanmi Science Co., Ltd., dated 2017).
Where no end group is shown, it is not given here. [ ]: non-standard residue; d: D form. The star is where a group is joined. Acetyl(2-(4-imidazolyl)) = O=C(Cc1c[nH]cn1)*; Aib = CC(C)(N)C(=O)O

Columns and labels:
human GLP-1 receptor = human GLP-1 receptor (human, UniProt P43220); test: cell-based or functional assay
human glucagon receptor = human glucagon receptor (human, UniProt P47871); test: cell-based or functional assay

Binder	EC50 (nM), cAMP (human GLP-1 receptor) [nM]	EC50 (nM), cAMP (human glucagon receptor) [nM]
H[Aib]QGTFTSDYAKYLDEKRAKEFVQWLMNTC (also: ring marking not visible) [oxyntomodulin derivative of SEQ ID NO. 33]	2.2	80.2
H[Aib]QGTFTSDYSKYLDEKRAKEFVCWLMNT (also: ring between residues marked, places not visible) [oxyntomodulin derivative of SEQ ID NO. 23]	2.46	5.8
[Acetyl(2-(4-imidazolyl))]SQGTFTSDYSRYLDEEAVRLFIEWIRNGGPSSGAPPPSK (also: N-terminal CA (4-imidazoacetyl), whether it replaces His1 not given here) [oxyntomodulin derivative of SEQ ID NO. 18]		> 1000
[Acetyl(2-(4-imidazolyl))]SQGTFTSDLSRQLEEEAVRLFIEWLMNK (also: N-terminal CA (4-imidazoacetyl), whether it replaces His1 not given here) [oxyntomodulin derivative of SEQ ID NO. 8]		> 1000
Y[Aib]QGTFTSDYSKYLDEKRAKEFVQWLMNTC (also: ring marking not visible) [oxyntomodulin derivative of SEQ ID NO. 34]	12.5	1
H[Aib]QGTFTSDYSKYLDEKRAKEFVQWLMNTC (also: ring between residues marked, places not visible) [oxyntomodulin derivative of SEQ ID NO. 25]	1.9	
[Acetyl(2-(4-imidazolyl))]SQGTFTSDYSKYLDERRAQDFVAWLKNTGPSSGAPPPS (also: N-terminal CA (4-imidazoacetyl), whether it replaces His1 not given here) [oxyntomodulin derivative of SEQ ID NO. 3]	> 1000	
H[Aib]QGTFTSDYSKYLDEKRAKEFVQWLMNTC (also: ring between residues marked, places not visible) [oxyntomodulin derivative of SEQ ID NO. 24]	1.43	
HGEGTFTSDLSRQMEEEAVRLFIEWAAHSQGTFTSDYSRYLDK (not fully specified (residue 1, N-terminus); also: N-terminal CA (4-imidazoacetyl), whether it replaces His1 not given here) [oxyntomodulin derivative of SEQ ID NO. 11]	> 1000	> 1000
HSQGTFTSDYSRYLDEEAVRLFIEWIRNTKRNRNNIA (not fully specified (residue 1, N-terminus); also: N-terminal CA (4-imidazoacetyl), whether it replaces His1 not given here) [oxyntomodulin derivative of SEQ ID NO. 17]		> 1000
H[Aib]QGTFTSDYSKYLDEKRAKEFVQWLMNT (also: ring between residues marked, places not visible) [oxyntomodulin derivative of SEQ ID NO. 28]		0.3
[Acetyl(2-(4-imidazolyl))][Aib]QGTFTSDYSKYLDEKRAKEFVQWLMNTC (also: ring between residues marked, places not visible) [oxyntomodulin derivative of SEQ ID NO. 32]	14.2	17.3
HGEGTFTSDLSRQMEEEAVRLFIEWAAHSQGTFTSDYSKYLD (not fully specified (residue 1, N-terminus); also: N-terminal CA (4-imidazoacetyl), whether it replaces His1 not given here) [oxyntomodulin derivative of SEQ ID NO. 6]		> 1000
HSQGTFTSDYSRYLDEEAVELFIEWLMNTK [oxyntomodulin derivative of SEQ ID NO. 13]	> 1000	> 1000
